# Test results taken from US20260116970A1 (NMI NATURWISSENSCHAFTLICHES UND MEDIZINISCHES INSTITUT AN …, published 2026).
# Tests used:
# [1] = target: T1, recombinant hSIRPα (extracellular portion) (human, UniProt P78324 31-373, biotinylated with Sulfo-NHS-LC-LC-Biotin where immobilised on streptavidin sensors); test: BLI, biotinylated hSIRPα immobilised on streptavidin biosensors, chelator conjugated S36K>R at 1.25-10 nM
# T1 construct: extracellular domain; The limits aa31-370 are stated for the immunogen; The BLI and HDX text says only 'recombinant hSIRPα' / 'biotinylated hSIRPα'; also called biotinylated hSIRPα
# T1 sequence (P78324 31-373): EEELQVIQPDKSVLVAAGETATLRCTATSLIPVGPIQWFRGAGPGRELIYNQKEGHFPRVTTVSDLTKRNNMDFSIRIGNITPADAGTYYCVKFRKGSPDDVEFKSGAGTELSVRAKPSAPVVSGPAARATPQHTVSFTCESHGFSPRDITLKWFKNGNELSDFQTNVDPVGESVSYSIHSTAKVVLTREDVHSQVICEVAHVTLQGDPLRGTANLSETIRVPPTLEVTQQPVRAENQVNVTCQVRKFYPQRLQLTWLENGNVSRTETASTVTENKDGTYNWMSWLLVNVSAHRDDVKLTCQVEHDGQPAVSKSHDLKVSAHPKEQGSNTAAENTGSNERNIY
# Experimental: Biotinylated hSIRPα was immobilized on streptavidin biosensors. Kinetic measurements were performed by using four concentrations of purified Nbs ranging from 1.25 nM to 10 nM; (E) Stability analysis of chelator conjugated hSIRPα-S36_{K>R} Nb by nanoDSF as fluorescence ratios (350 nm/330 nm) and light intensity loss due to scattering illustrated as first derivative before (To) and after 10 days of accelerated aging at 37° C. (T₁₀); and (F) Phagocytosis of DLD-1 cells by human monocyte-derived macrophages treated with anti-EGFR cetuximab and chelator conjugated hSIRPα-S36_{K>R} Nb. Analysis of phagocytosis of hSIRPα-S36_{K>R} Nb in combination with cetuximab of three different donors (K1, K2, K3). Data are presented as mean±SD of three technical replicates. And
# Analysis of binding kinetics of hSIRPα specific Nbs was performed using the Octet RED96e system (Sartorius) as per the manufacturer's recommendations. In brief, […] of biotinylated hSIRPα diluted in Octet buffer (PBS, 0.1% BSA, 0.02% Tween20) was immobilized on streptavidin coated biosensor tips (SA, Sartorius) for 40 s. In the association step, a dilution series of Nbs ranging from 0.625-320 nM were reacted for 240 s followed by dissociation in Octet buffer for 720 s. […] Data were analyzed using the Octet Data Analysis HT 12.0 software applying the 1:1 ligand-binding model and global fitting. […]
# hSIRPγ on U2OS cells [2] = target: T2, hSIRPγ on U2OS cells (human, UniProt Q9P1W8 29-387); test: immunofluorescence on U2OS cells transiently expressing hSIRPγ
# T2 construct: whole, on cells; also called SIRP gamma
# T2 sequence (Q9P1W8 29-387): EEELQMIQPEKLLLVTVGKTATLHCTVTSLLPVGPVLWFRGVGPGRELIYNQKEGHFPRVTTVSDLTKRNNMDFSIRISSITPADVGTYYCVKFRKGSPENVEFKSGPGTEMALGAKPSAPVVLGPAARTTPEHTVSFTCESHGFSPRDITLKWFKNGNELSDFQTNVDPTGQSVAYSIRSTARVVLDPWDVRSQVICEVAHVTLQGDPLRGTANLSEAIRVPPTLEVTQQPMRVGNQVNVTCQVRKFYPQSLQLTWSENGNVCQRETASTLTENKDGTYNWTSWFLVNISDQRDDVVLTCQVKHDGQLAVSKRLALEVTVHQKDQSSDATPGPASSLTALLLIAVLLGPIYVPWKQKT
# Experimental: (§1) Stably expressing hSIRPα U2OS cells, U2OS wt or U2OS cells transiently expressing individual hSIRPα domains (D1-3) with SPOT-Tag or different hSIRP family members (hSIRPα-V1, hSIRPα-V2, hSIRPβ1, hSIRPγ, murine SIRPα) were plated at ˜10,000 cells per well of a μClear 96-well plate (Greiner Bio One, cat. #655090) and cultivated overnight at standard conditions. For imaging, medium was replaced by live-cell visualization medium DMEMgfp-2 (Evrogen, cat. #MC102) supplemented with 10% FBS, 2 mM L-glutamine, 2 μg/ml Hoechst33258 (Sigma Aldrich) for nuclear staining. 1-100 nM of unlabeled hSIRPα Nbs in combination with 2.5 μg/ml anti-VHH secondary Cy5 AffiniPure Goat Anti-Alpaca IgG (Jackson Immuno Research) were added and incubated for 1 h at 37° C. […]
# (§2) Moreover, with hSIRPαV1 and hSIRPαV2, two isoforms are expressed either homozygously (v1/v1 or v2/v2) or heterozygously (v1/v2), and the frequency of distribution varies between human subpopulations (Sim et al., “Discovery of high affinity, pan-allelic, and pan-mammalian reactive antibodies against the myeloid checkpoint receptor SIRPα”, MAbs. Taylor & Francis (2019) pp. 1036-1052). To address the question of specificity, hSIRPβ1, hSIRPγ or the hSIRPα polymorphisms hSIRPα-V1 and hSIRPα-V2 were transiently expressed in U2OS cells and their recognition was analyzed by the selected hSIRPα Nbs by immunofluorescence staining. […]
# hSIRPβ1 on U2OS cells = target: T3, hSIRPβ1 on U2OS cells (human, UniProt O00241 30-398); test: immunofluorescence on U2OS cells transiently expressing hSIRPβ1
# T3 construct: whole, on cells; also called SIRP beta
# T3 sequence (O00241 30-398): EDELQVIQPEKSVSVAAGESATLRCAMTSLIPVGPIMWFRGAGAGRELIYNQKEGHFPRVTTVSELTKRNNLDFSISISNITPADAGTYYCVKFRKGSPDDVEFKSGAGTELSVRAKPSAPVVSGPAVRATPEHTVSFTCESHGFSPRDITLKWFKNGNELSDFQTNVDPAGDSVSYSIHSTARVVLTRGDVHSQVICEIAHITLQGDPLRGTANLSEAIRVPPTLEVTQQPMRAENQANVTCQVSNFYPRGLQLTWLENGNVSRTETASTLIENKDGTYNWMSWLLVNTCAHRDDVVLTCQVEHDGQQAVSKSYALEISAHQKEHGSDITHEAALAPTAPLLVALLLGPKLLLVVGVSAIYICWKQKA
# Experimental: as §1, §2
# [3] = target: T4, murine SIRPα on U2OS cells (mouse, UniProt P97797 32-513); test: live-cell immunofluorescence on U2OS cells transiently expressing murine SIRPα
# T4 construct: whole, on cells; also called mouse SIRPα
# T4 sequence (looked up): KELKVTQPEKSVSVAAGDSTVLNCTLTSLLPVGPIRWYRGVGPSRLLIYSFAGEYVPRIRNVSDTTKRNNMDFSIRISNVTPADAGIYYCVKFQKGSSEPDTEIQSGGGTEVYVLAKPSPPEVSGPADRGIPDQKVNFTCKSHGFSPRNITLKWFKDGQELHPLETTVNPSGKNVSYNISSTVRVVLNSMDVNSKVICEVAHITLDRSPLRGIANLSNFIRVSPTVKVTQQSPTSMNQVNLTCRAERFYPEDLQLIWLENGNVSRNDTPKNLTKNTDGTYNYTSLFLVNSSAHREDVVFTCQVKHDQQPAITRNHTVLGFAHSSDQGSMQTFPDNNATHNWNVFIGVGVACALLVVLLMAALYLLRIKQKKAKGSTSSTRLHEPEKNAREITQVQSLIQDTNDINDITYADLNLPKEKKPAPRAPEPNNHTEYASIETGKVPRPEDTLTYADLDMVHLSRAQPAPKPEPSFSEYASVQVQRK
# Experimental: (§3) Stably expressing hSIRPα U2OS cells, U2OS wt or U2OS cells transiently expressing individual hSIRPα domains (D1-3) with SPOT-Tag or different hSIRP family members (hSIRPα-V1, hSIRPα-V2, hSIRPβ1, hSIRPγ, murine SIRPα) were plated at ˜10,000 cells per well of a μClear 96-well plate (Greiner Bio One, cat. #655090) and cultivated overnight at standard conditions. For imaging, medium was replaced by live-cell visualization medium DMEMgfp-2 (Evrogen, cat. #MC102) supplemented with 10% FBS, 2 mM L-glutamine, 2 μg/ml Hoechst33258 (Sigma Aldrich) for nuclear staining. 1-100 nM of unlabeled hSIRPα Nbs in combination with 2.5 μg/ml anti-VHH secondary Cy5 AffiniPure Goat Anti-Alpaca IgG (Jackson Immuno Research) were added and incubated for 1 h at 37° C. For control staining hSIRPα Ab PE (SE5A5, BioLegend) and bivSPOT-Nb labeled with AlexaFluor647 (AF647) were used. Images were acquired with a MetaXpress Micro XL system (Molecular Devices) at 20× or 40× magnification.
# (§4) Moreover, with hSIRPαV1 and hSIRPαV2, two isoforms are expressed either homozygously (v1/v1 or v2/v2) or heterozygously (v1/v2), and the frequency of distribution varies between human subpopulations (Sim et al., “Discovery of high affinity, pan-allelic, and pan-mammalian reactive antibodies against the myeloid checkpoint receptor SIRPα”, MAbs. Taylor & Francis (2019) pp. 1036-1052). To address the question of specificity, hSIRPβ1, hSIRPγ or the hSIRPα polymorphisms hSIRPα-V1 and hSIRPα-V2 were transiently expressed in U2OS cells and their recognition was analyzed by the selected hSIRPα Nbs by immunofluorescence staining. In addition, murine SIRPα was included to evaluate potential cross-reactivity between human and mouse SIRPα variants (FIG. 3A; data not shown).
# [4] = target: T1, recombinant hSIRPα (extracellular …); test: BLI, biotinylated hSIRPα immobilised on streptavidin biosensors, Nb in solution, global 1:1 fit
# Experimental: (§5) Biotinylated hSIRPα was immobilized on streptavidin biosensors.
# (§6) Analysis of binding kinetics of hSIRPα specific Nbs was performed using the Octet RED96e system (Sartorius) as per the manufacturer's recommendations. In brief, […] of biotinylated hSIRPα diluted in Octet buffer (PBS, 0.1% BSA, 0.02% Tween20) was immobilized on streptavidin coated biosensor tips (SA, Sartorius) for 40 s. In the association step, a dilution series of Nbs ranging from 0.625-320 nM were reacted for 240 s followed by dissociation in Octet buffer for 720 s. Every run was normalized to a reference run applying Octet buffer for association. Data were analyzed using the Octet Data Analysis HT 12.0 software applying the 1:1 ligand-binding model and global fitting. For epitope binning two consecutive association steps with different Nbs were performed. By analyzing the binding behavior of the second Nb, conclusions about shared epitopes were drawn. For the hCD47 competition assay hCD47 was biotinylated and immobilized on SA biosensors followed by the application of pre-mixed solutions containing hSIRPα (20 nM) and Nb (250 nM). As control the hCD47-competing Ab KWAR23 (5 nM) was used.
# [5] = target: T1, recombinant hSIRPα (extracellular …); test: BLI, biotinylated hSIRPα immobilised on streptavidin biosensors, S36 at 0.625-5 nM, global 1:1 fit
# Experimental: as §5, §6
# hSIRPγ on U2OS cells [6] = target: T2, hSIRPγ on U2OS cells; test: live-cell immunofluorescence on U2OS cells transiently expressing hSIRPγ, detection with anti-VHH-Cy5
# Experimental: (§7) Data are presented as mean±SD of three technical replicates.
# as §3, §4
# hSIRPα-V2 on U2OS cells = target: T5, hSIRPα-V2 on U2OS cells (human, UniProt P78324 31-504); test: live-cell immunofluorescence on U2OS cells transiently expressing hSIRPα-V2, detection with anti-VHH-Cy5
# T5 construct: whole, on cells
# T5 sequence (P78324 other isoform, or with tags, fused parts or gaps limits assumed): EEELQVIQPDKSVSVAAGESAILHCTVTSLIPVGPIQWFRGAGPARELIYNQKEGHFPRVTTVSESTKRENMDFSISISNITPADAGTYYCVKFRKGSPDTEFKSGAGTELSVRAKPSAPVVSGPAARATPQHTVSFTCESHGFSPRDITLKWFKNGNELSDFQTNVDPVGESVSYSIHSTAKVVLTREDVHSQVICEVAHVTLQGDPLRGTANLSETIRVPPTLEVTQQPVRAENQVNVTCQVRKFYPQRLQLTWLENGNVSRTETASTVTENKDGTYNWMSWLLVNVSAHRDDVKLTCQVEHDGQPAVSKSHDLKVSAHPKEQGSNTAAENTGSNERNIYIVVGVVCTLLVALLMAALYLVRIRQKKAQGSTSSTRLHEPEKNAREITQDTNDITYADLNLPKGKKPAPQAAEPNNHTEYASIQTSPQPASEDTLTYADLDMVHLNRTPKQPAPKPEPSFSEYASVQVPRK
# Experimental: as §7
# as §1, with “staining.” for “staining. 1-100 nM of unlabeled hSIRPα Nbs in combination with 2.5 μg/ml anti-VHH secondary Cy5 AffiniPure Goat Anti-Alpaca IgG (Jackson Immuno Research) were added and incubated for 1 h at 37° C.”
# as §2
Binder,Kd [1],binding result (hSIRPγ on U2OS cells [2]),binding result (hSIRPβ1 on U2OS cells),binding result [3],Kd [4],koff [4],kon [4],Kd [5],binding result (hSIRPγ on U2OS cells [6]),binding result (hSIRPα-V2 on U2OS cells)
"chelator conjugated hSIRPα-S36K>R Nb (VHH, p-NCS-benzyl-NODA-GA chelator conjugated to the single remaining primary NH2-group at the N-terminus) VHH: EVQLVESGGGLVQPGGSLRLSCAASGFTLDYYAIGWFRQVPGREREGVSCISSDGGGNTYYADSVRGRFTISRDNARNTVYLQMNSLRPEDSAVYSCAAGPTYYSGSYCRDPHSDYDYWGQGTQVTVSS",0.19 nM,–,–,–,–,–,–,–,–,–
"hSIRPα nanobody S36 (VHH, also called Nb S36; hSIRPα-S36 Nb) VHH: EVQLVESGGGLVQPGGSLRLSCAASGFTLDYYAIGWFRQVPGKEREGVSCISSDGGGNTYYADSVKGRFTISRDNAKNTVYLQMNSLKPEDSAVYSCAAGPTYYSGSYCRDPHSDYDYWGQGTQVTVSS",–,binds,binds,no binding (tested: 1-100 nM),0.12 nM,0.0002 s⁻¹,1.52e+06 M⁻¹ s⁻¹,0.12 nM,–,–
"hSIRPα nanobody S8 (VHH, Purified by IMAC; the tag is not described; also called Nb S8) VHH: QVQLVESGGGLVQPGGSLRLSCADSEFRLDEYATGWFRQAPGKEREGVACISRSGSNTKYTDSVKGRFTISRDNAKKTVYLQMNSLKPEDTAVYYCAADLTSHYLSCSSYTDYNSWGQGTQVTVSS",–,–,–,no binding (tested: 1-100 nM),0.46 nM,0.0009 s⁻¹,2.04e+06 M⁻¹ s⁻¹,–,–,–
"hSIRPα nanobody S45 (VHH, also called Nb S45) VHH: HVQLVESGGGLVQPGGSLRLSCAARGFSFRDSAMSWARQAPGKGLEWVGAIYSDGSTVYEKSVKGRFTISRDNAKNTMYLQMHSLKPEDSARYYCAPKGVVADEGDYSGQGTLVTVSS",–,–,–,no binding (tested: 1-100 nM),2.53 nM,0.00164 s⁻¹,646000 M⁻¹ s⁻¹,–,no binding (tested: not on the sheet; 1-100 nM per paragraph 140),–
"hSIRPα nanobody S7 (VHH, Expressed from pHEN6 in E. coli and purified by IMAC; the tag is not described; also called Nb S7) VHH: HVQLVESGGGLVQVGDSLRLSCAPSGRTFRAYAMAWFRQAPGKEREFVAAIRWIGGTPSYKDSVKGRFTISRDNARNTFYLQMNSLEPQDTGVYYCAAEETQKGSGLGHDGRHYDYWGQGTPVTVSS",–,–,–,no binding (tested: 1-100 nM),20 nM,0.0123 s⁻¹,610000 M⁻¹ s⁻¹,–,no binding (tested: not on the sheet; 1-100 nM per paragraph 140),–
"hSIRPα nanobody S12 (VHH, also called Nb S12) VHH: QVQLVESGGGLVQPGGSLRLSCLVSGFSSSYYAIGWFRQAPGKEREGVSCITRSGDTTNYADSVKGRFTISRDDARNTVYLQMNSLKTEDTAVYSCALWAWAGSGRLRCTASEYGHWGQGTQVTVSS",–,–,–,no binding (tested: 1-100 nM),25.9 nM,0.0127 s⁻¹,490000 M⁻¹ s⁻¹,–,–,no binding (tested: not on the sheet; 1-100 nM per paragraph 140)
"hSIRPα nanobody S33 (VHH, also called Nb S33) VHH: EVQLVESGGGLVQPGGSLRLSCTTSGFTLDYYSVGWFRQAPGKEREGVSCITASGSSTNYANSVKGRFTISRDKVKNTVYLQMSSLKPEDTAVYYCAAEPCTVVAGILQAPTSDFGSWGQGTQVTVSS",–,–,–,no binding (tested: 1-100 nM),20 nM,0.00544 s⁻¹,267000 M⁻¹ s⁻¹,–,no binding (tested: not on the sheet; 1-100 nM per paragraph 140),–
"hSIRPα nanobody S41 (VHH, The single assignment S41 = 26 follows only from the listing order; also called Nb S41) VHH: HVQLVESGGGLVQPGGSLRLSCAASGETLDYYAIGYVRQAPGKEREGVSCISSRGDNTNYADSVKGRFTISRDNANNTVYLQMNSLKPEDTAVYYCVAIKDSWQNYYCSVGWVEYDVWGQGTQVTVSS",–,–,–,–,5.65 nM,0.00383 s⁻¹,678000 M⁻¹ s⁻¹,–,–,–
"hSIRPα nanobody S44 (VHH, also called Nb S44) VHH: QVQLQESGGGLVQPGGSLRLACAASGFTFSSYDMSWVRQAPGKGLEWVSDIKSGGGRTYYADSVKGRFTISRDNAKNTVYLQMNSLKPEDTAVYYCGSLDNSGAYTGGGQGSQVTVSS",–,–,–,no binding (tested: 1-100 nM),4.61 nM,0.00915 s⁻¹,1.99e+06 M⁻¹ s⁻¹,–,–,no binding (tested: not on the sheet; 1-100 nM per paragraph 140)
